# Test results reported in the supplement of paper PMC12042874.
# ± gives the uncertainty stated by the source.
# Assay: amyloid nucleation score (Sup35N fusion, yeast selection) (log enrichment); library NNK1; higher = more nucleation; inactive = no reads after selection
# Procedure, shortened: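 Peptides of 20 random codons, each fused to Sup35N, were expressed in psi-negative yeast. Cells were induced with 100 μM copper sulfate for 24 hours and grown 7 days at 30°C on medium lacking adenine and uracil, and plasmid inserts before and after selection were Illumina-sequenced. Nucleation scores are DiMSum log enrichments of output over input reads, centred on the mode score of non-aggregating sequences, and sequences under 100 input reads were excluded.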
row,Substance,amyloid nucleation score
1,LVVIVTPWKYSEP,6.58 ± 0.086
2,RVITYSV,-0.016 ± 1.4
3,LLGRYNLLYIGMFRATRGGC,-0.094 ± 1.5
4,MMCGNLY,0.625 ± 0.7
5,MLVNSM,0.497 ± 0.49
6,DWDSALPSLNFDSETPFYKS,-0.649 ± 0.48
7,ARFCRGGRIVSLMRVLTQTR,-0.931 ± 1.3
8,FTVGYGSYGLT,0.306 ± 0.54
9,FGLYYLSNSEFMYVDRFHLG,-0.575 ± 0.38
10,KVRMLNMVYKNLSDRD,0.884 ± 0.56
11,GAKFSTVSRENDDMHFAWLW,1.19 ± 0.97
12,DWMNYVWTVTRIGSYSMVGI,1 ± 0.68
13,NWVGGYTEIALLA,-0.344 ± 0.78
14,IQSFAMLMQVCLIAHLYRRL,0.108 ± 1
15,TVIRSVIIPITPPIIR,1.57 ± 0.56
16,VFNTGYRVSRILDLGYKFNM,inactive
17,QKIDNSIGQFYRKI,-1.15 ± 0.59
18,RCQNRH,-0.221 ± 0.46
19,RFLAWTSLPQGAAKVIMKC,0.126 ± 0.53
20,TDEGLVCHK,0.522 ± 0.75
21,LNSRHVNSYF,0.869 ± 0.48
22,TNSCNLELAVICMSSYWG,4.71 ± 0.069
23,WEVVMWRYCAPRTGVLPQKP,-0.535 ± 1.2
24,SYHNLCGSESGQVVNNQDRM,-0.852 ± 0.51
25,CRLFYSWNVNMYRNMLLRWI,-0.767 ± 0.33

row,Substance,amyloid nucleation score
1,YIASMVCDIRKPHPCLVYVL,0.149 ± 0.42
2,TMYPLIRLYGSMSRNETGEW,0.437 ± 0.33
3,YKSIWTRLGSGRSRVGLSRL,-0.38 ± 1
4,ACYRATNMSCRRGHKLAGGF,inactive
5,DAFAGF,0.054 ± 0.59
6,FSILILRHCVDLRYRVTSTM,0.446 ± 0.6
7,HGAVLCC,0.305 ± 1.4
8,AMVGLMMELAHRKLNR,0.523 ± 0.45
9,GLLETYDWAVQWTGHLEC,0.168 ± 0.89
10,LFSWICEN,0.142 ± 0.28
11,ILCKVPVVASSNGS,-0.35 ± 0.5
12,GEGICL,-0.012 ± 1.1
13,RDIRVHATDLNENNCVAHCR,-0.356 ± 0.32
14,RNNEDGRLKDRRRGLSHGQG,-0.531 ± 0.31
15,AMNGVLVIGGV,-0.668 ± 1.7
16,NCNIMNFIDTCLCGAMYYFR,4.12 ± 0.078
17,LKYLR,1.14 ± 0.15
18,IFALWTHKTPRQIAPLGTQK,-0.835 ± 1.3
19,GPDNVCCGSRPKISDVGYGM,inactive
20,SVPITLIGALGVKM,0.177 ± 0.57
21,SADPFVFVALQWNHGVGSWR,4.06 ± 0.069
22,VSCMRDIIRLCYQQTPICKF,-0.272 ± 0.84
23,FADNWLCKIRYSCGISLSKY,-0.739 ± 0.39
24,VRGLGGW,-0.134 ± 0.97
25,VVLTYSWGAYRY,1.26 ± 0.23

row,Substance,amyloid nucleation score
1,TLTRYC,-0.086 ± 1.2
2,YLNERE,-1.16 ± 1
3,MSVMLIS,0.126 ± 0.44
4,TSQENTDINGPCKLTSVLQR,0.436 ± 0.68
5,NYLERHMQHPMRTHVFRGQL,0.129 ± 0.72
6,DDYTGSEVNIITIV,-1.43 ± 0.44
7,DILDSH,-0.824 ± 0.38
8,ICKLRNSTGSTRIT,0.227 ± 0.45
9,MRYMCVRY,0.676 ± 0.46
10,TVKHC,3.17 ± 0.14
11,NLEWGLYISTANCPRNYDKA,inactive
12,RTDLGVRIKF,0.77 ± 0.55
13,SRLVCLVNYVGGGYIETITL,4.02 ± 0.1
14,RYVTDSGVGSIPRYLIKCSR,-0.111 ± 0.42
15,SLLTYQ,0.757 ± 0.27
16,TRRYWV,-0.679 ± 0.32
17,DKLICLMLEAASICYKVQSG,-0.673 ± 0.57
18,FDIIK,-0.358 ± 1.4
19,WYPMYQNTYRAEERVT,0.42 ± 0.64
20,RVGKYDLKSRDLGVGVDGVG,0.586 ± 0.29
21,RSVYSDLSQTYRLQDFFETM,-1.69 ± 2.4
22,YNKVDM,-0.316 ± 0.53
23,HTVNLAPRNPDPPS,0.259 ± 0.77
24,SWKIFIRIMTDYSIQFAYSY,1.88 ± 0.098
25,EDTSMELWVSAGIRGGLPLV,-1.13 ± 0.94

row,Substance,amyloid nucleation score
1,VCFEVWSGHFSASLTM,0.663 ± 0.44
2,KENQSIRFWVD,inactive
3,MSISRALLGSSFMFGLVISA,-0.14 ± 0.83
4,EFGFVWVKLCNWGISLLQVN,inactive
5,ICVRMSKFGCWTFSVKRGWQ,0.335 ± 0.77
6,VKLTNLGFRGKFDVVDCHWI,-0.546 ± 0.34
7,VTFRIVRVLPMEPVRTRAGD,-0.972 ± 0.54
8,FYSFWMGRTCMFIVTRVNSA,-0.091 ± 0.31
9,VWGQRGSGSNSCLEW,0.15 ± 0.68
10,VNNFIDCSSFCVYYLFKPGR,7.671 ± 0.051
11,EYNSFWTVVSMILTVKWLSG,0.502 ± 0.24
12,ASVVQVTGRGSVGMVFPCCS,-0.558 ± 0.56
13,PTLVRECFEALSVSDYPVPG,-0.674 ± 1.7
14,NFFYT,-0.758 ± 1.1
15,TLSRFPLAALNLVRVR,0.3 ± 0.86
16,VAAFEIMHLLISCDNRCRFQ,0.337 ± 0.38
17,VRVPCDIAIYMYGGLKALLS,-0.245 ± 1.3
18,SFSIN,0.238 ± 0.29
19,LMYSNRYF,4.1 ± 0.079
20,FRFAMRYFRGIYELRNENRR,inactive
21,RGTWNDMASGEEVVAFIGEY,0.51 ± 0.35
22,FCWLSMRAIRISSS,0.531 ± 0.44
23,YLCGHLMNTLYAILNVRRAL,0.888 ± 0.9
24,CGIDKSDRIMLIKTVQLSVQ,0.09 ± 0.68
25,SFKWLGTFRYSYTKSTEHVW,-0.534 ± 1.2

row,Substance,amyloid nucleation score
1,FYVMSMLIM,0.029 ± 0.47
2,TETLADVLALERLPGCMKFI,0.259 ± 0.68
3,LCTLCIALPVMRVLSTVPVP,0.267 ± 0.59
4,HEKDWLTSVCFISELSTFNN,0.709 ± 0.65
5,MTCDVSKMCVSLRVVTSNGG,1.27 ± 0.31
6,VVESTGFIWAGEWVLWIEFS,-0.356 ± 0.82
7,CMWPFTDYTIIKTSLYTWTN,-1.09 ± 0.53
8,NVDKHVWFGGVIVVNLWHIR,6.827 ± 0.054
9,GNYNSPFFRGSVNWNWCM,0.485 ± 1.2
10,YYKYKLLLIKLVLGGAGRPV,-0.054 ± 0.56
11,FCEDKNRRSSPSIWQNNCKM,0.829 ± 0.16
12,GIGAGYKFNDTVFSEGCSSG,0.653 ± 0.93
13,TKYCFPFNFQGSLHQWRRRF,0.972 ± 0.52
14,VIDRTEGTYCREITTFHYYN,-0.378 ± 0.62
15,LSEYYKAKGDRVTWPQFLTT,-0.453 ± 0.49
16,AQWVLMWYVRHVR,1.49 ± 0.18
17,DDHSLQPRLPLE,inactive
18,ARWCEGRYSFILNKQQKLAK,0.662 ± 0.49
19,VLGERYCPSNVLWLHLCGGE,0.315 ± 0.28
20,RYWLYVKFGWYLTDGFYSGS,0.665 ± 0.29
21,EWTSAWW,-0.355 ± 0.36
22,CGMVGWTSLPEQNRYPIPST,-0.511 ± 1.1
23,LGQGRLYILYFMSMYLDMMG,0.748 ± 0.47
24,LKGVIYAVANWGWIISGHEV,0.837 ± 0.23
25,FMTFVYTGTSFSR,0.523 ± 0.71

row,Substance,amyloid nucleation score
1,LIMVFVDSLRNRLELCFFQC,inactive
2,EDSLFRSVLILMSVMFIQVD,1.05 ± 0.38
3,IACFFQT,1.66 ± 0.21
4,VSDRRTGVLRIHCNFKVGLS,1.89 ± 0.16
5,SSGSMCTLFSSE,1.75 ± 0.57
6,YSLLVHIFMLLWSYDCLTVT,-1.54 ± 2.7
7,ISMTDYVPSMHYAQTRVHLN,-0.085 ± 0.78
8,SSLSSMLRGSWAGYVLNCL,inactive
9,CSNDLECFCDFNCRL,-0.033 ± 0.39
10,ILSVVYVLVCVVQVLCKQWH,0.163 ± 0.43
11,KMGYFE,0.915 ± 0.45
12,VHDENYDRFQGFVLDMLQAH,0.641 ± 0.37
13,TGTSSPMRPLH,0.532 ± 0.69
14,HFYSGECVFRGACRYQRRGH,0.402 ± 1.4
15,GFSIYRCHYFSGRMVTNVSM,-0.475 ± 1.7
16,LRGRLYASGRVEFYHKQSLF,0.526 ± 0.83
17,FIRVMRA,inactive
18,SWTTARLNRSRSIFKNLRQE,0.028 ± 0.46
19,TIFLQALGYSRWLLEISMDR,-1.06 ± 0.96
20,NKLRGGVGERSVLQGWIEED,-0.052 ± 0.53
21,RRSQCSVEPGVWHRVRSFLV,0.35 ± 0.77
22,NKLAHSNVDKAKLRDNPQAG,-0.407 ± 1
23,LVYGKPVNHAEGSDDSTHNG,0.205 ± 0.6
24,VRYSGNMLSSTSVNGIFGHE,0.067 ± 0.28
25,SCVLRRNSHRIMDSYPRYGQ,0.151 ± 0.29

row,Substance,amyloid nucleation score
1,CRRIHFLVTMVTGSPLCLSG,-0.627 ± 0.32
2,NPGRLRFTGTMRRTQKIEVA,-0.876 ± 0.49
3,IIFVEWNSGRAC,-0.526 ± 0.51
4,EISVKECGGSLDYNANLRDR,inactive
5,TMSASLNYLTLVMN,0.129 ± 0.59
6,QTGRFDIVSAS,3.52 ± 0.069
7,RLFITCRAL,2.52 ± 0.18
8,SSSWTTCY,2.15 ± 0.1
9,FYPYN,0.743 ± 0.79
10,QGSPARMCVL,0.629 ± 1
11,EMVLLNATFYYAYCHSNRLR,0.227 ± 0.27
12,ARTGPTSASVGGLQPVCPGD,-0.019 ± 0.55
13,HHVWGFRSMLDSLHRSDCIQ,-0.989 ± 2.7
14,FASILVFQNGSIATCAINWV,0.694 ± 0.84
15,SKCAVQCLVG,0.986 ± 0.2
16,WDLCISINYSVFLNLACSV,3.25 ± 0.098
17,SRVLRPS,-0.174 ± 0.4
18,SFCMMLVSLVFSSKKISHHA,0.877 ± 0.49
19,WNEWRGHVTILGDLYSYRHT,3.6 ± 0.16
20,DISDRGTDIFVSTPGSSMLS,0.503 ± 0.43
21,FVYFTGIMIC,-0.46 ± 1
22,NADCAYYDERYRYSSWLYFY,-1.2 ± 1.1
23,RFLYVGCCINTIVGFTWFRS,3.28 ± 0.11
24,CGNAWVKAIMW,-0.191 ± 0.66
